Target: T1, MBP-GlnR (Mycobacterium smegmatis (SMR5?)) (UniProt A0R4C4)
T1 sequence: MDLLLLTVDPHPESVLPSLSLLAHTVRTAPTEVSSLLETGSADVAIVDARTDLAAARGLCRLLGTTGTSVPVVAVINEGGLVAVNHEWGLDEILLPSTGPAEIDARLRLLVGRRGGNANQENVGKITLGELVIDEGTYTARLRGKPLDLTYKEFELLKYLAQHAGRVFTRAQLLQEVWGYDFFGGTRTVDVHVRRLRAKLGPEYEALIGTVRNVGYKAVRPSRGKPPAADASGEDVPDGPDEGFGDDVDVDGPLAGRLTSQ
Assay: EMSA
Settings: GlnR: DIG Gel Shift Kit (Roche) buffer, 6% native PAGE, 0.5x TBE; AmtR: 20 mM Tris-HCl pH 7.9, 25 mM KCl, 1 mM DTT, 5 mM MgCl2, 0.5 mg/ml BSA, 5% glycerol …

Sequence | binding
AACGGTGTGCTTCCTCCGCTGTAGGTGGATCACCGCGTGAAGCGGGTGACCGGTGCAGGGTCGGCGCAACTTACTGCGCTTGGAAAATGCTCGCGCAGGAACGTTTCGGTGGATCCCGTCGGCAATGTCGGTGACGTTAACTCTGCACGGCCCCGCGTTACGTTGTGGTGACCTGACGCAACGGATTTCGTTGTGTGTCCGGTAGGCCCGCGTGACGACGAACCCGGCCGGCCGATGTTCGGCCGACCGGGTCGTCACGAGGTCACGGCTA (double strand) [msmeg_2526 upstream] | binds
AGGCTTTTCGCCGGCTGCTGTGATCACACCAAGATCGTCGGCGCAGTCGATGACCTAGATGTTGTCGTGAAGTTTCAAGAATGTGACGTCATCAGTCGGCGGCTGCGTCGACCGCCAGCAGCAGTCGCAACGCGCCCGCATCGCGAGGGACTGCCGGGTCGAGGCCGGTACTGCTGGTCACCCTGGCCAGTCGGTTGATGACGGTGTTGCGATGGCAGTAGAGCCTGCGAGCGGTCTCGGTGACGGAACCGGTGTCGAGATAGATGCGCAGCGTGTCCGTGAGCAAGGTCTGATCGCGCG (double strand) [msmeg_3400 upstream] | binds
CAAACATCTCCTCACGGTGGCGGCTCGAAACAAGCCGTTCACTCGCAGTAACCGACGTTTCTGTTACGGAGATGGTCGCCAAGTGTTGCAGCGTGGTTAAAACTCAAACCGCGCTTTACAGCGGGTTGCCCCATCGGCCCGTGAACGCAACCTGCTCAAGTGCCAGACGTTCACGCGGGCGGCTGTCGCGTTCGGCGATGGCCTCGTCGGCCGTCGCGTAGTCACCGAGGTGTCCCAGCG (double strand) [amt1 upstream] | binds
CATGTGCCACCGTCGCGGCACGCGCGCCGACGAGTTCGCGCGCAGCCGCGGGCAGTTCGGCCGTGGCGGCGCGCAGACCGGCCACCGAGGTCGCCGCGTCGATGTGGCGCTGCACGAGGTCGGGGGCGGGCATACCGGCGATTGTGACAGGCCCACGGGCGGTGAGGGTTCTGCAACCGAATGCTTACCGACGGCTACATGAACGAAACATTCGGGTGACGCCGAGGACACGCGCCCATTGTTATCTGTCATCTGACAGGTAAGAGCTGGCGGCAGCGCCCCTAGCCAGAGAGAAAACCC (double strand) [msmeg_2184 upstream (GlnR probe)] | binds
CCAGTCCAGGAAATCACCGGATATCGGCTGGCGCGTCATTTTGACGGAAAACGTGGGGTACGCCGTTTCGCCGGGTCACCTCGGCGAACCACCGTGCGCTGGCCTTGGGCGTGCGGACCTGCGTGGCGTAATCGACGTGGATCAGGCCGAACCGCTTGGCGTAGCCGTACGCCCACTCGAAGTTGTCCAGCAGGCTCCACACGAAATAACCGCGGATGTCGGCACCATCGTCGATCGCCCG (double strand) [narK upstream] | no binding
CCCAGCTCGCCACTCTCGATGGTGGCCAGCACCAGGGACTTCTCGGGCACGAACCCGAGCACGGCGGGCAGCGCCGCGATCAACGATCCGGGCCGGTTGATACGAAAATCCGGTGTGTGCGGTGAAGGTGTCATGTGCCGACCGTGGCAACCGGCGCCGACGCCGTTCACCCCGAAAACCGGCTGCGACGAGTGGCTGTGGACGAAATCGGCTCTGGGGACAACTTCCGAAACAAACTGTTCACGCGCCATTGCGCGTCTCCGGCGTGCACGCGCGCCGACAGCGGCGTACACACTGACC (double strand) [msmeg_2748 upstream] | no binding
CCGCGACGTCGACCGCGCGCCCGGTCACCGGGCCCGGACCCGGCAAGGTGGTCGTGGTGTCGACGACAGGGGACCCGGCGACGCCGTACCAGGCCGGTGTGGACCTCGCCCGGCAAATGGGCGCGGCCCTGATCAGTTTCGACGGTGCGCAGCACACCGTGGTGTTCAACGGAGATGCCTGCGTCGACACCGCGGTGTTGCGCTTCCTGACCGATCTGCAGTCGCCCCCGGGCAACCTTGCCTGCTAGCTCTTGCACCCCCGTAACACAGATTTAACAGCCGGTGCATACGCTGCGGAGC (double strand) [glnA2 upstream] | binds
CCGGATGTTCCTTTCAGCTCTGCAGATTCGGGTGCCGTCAGTCCCAGTGCGCCTTGAAACCCAGTGCCGGGACGGTCTCCCCCAGCCCGGGTGTGGAGGCCTTGCGGATCAGGGCCAGTGTCTCGGCATACGTGGTGTGGTTCTCCGCGAGCCGCTCGGCGGGCACGGGCAGGCCCGCGAACTCGAACGCCGCGGAAATCTGTTCCTGCGATGGCATGAAATCGGACATGGTTCTCCTCGCTCTCAGAGGTTGGGGGTGAAGTCGACGAAACCGGCGATCCGCTCGAAGGCCCGGCCTG (double strand) [msmeg_1090 upstream] | no binding
CGGGGTCATCGGGCGGTCCGGCACGCCCGGCAAGGCCTGGGCCTGGCAGACCCGCTCGTGGTCGAAGGGCAAGATCCACCCCGCGGCGGTGCTCTATCAACACACCATCGACACCGCGTCGAACCCCGGACCGTTGGTCGGCGGCATCCGCGTGGATGTCAACGACGCCTTGGCCCAGGACATCGGCCAGTGGAATTTCCACCCCTGAGGTCACATCACTTTAATCTCGACGCAATTGCGTTGCCATACCGGTGATCTCTACTGAAGGCGCCAGCAGCCCCCTTCAGAGGACACCCGCCC (double strand) [msmeg_6816 upstream] | no binding
GAACAACCTTTCCCGATGATTGCAGCGCATTTTGGGCCGATCGCCTCGGCCGCGGTGCAGGAGGTTAAACACACTGTGCTGGTGTCGAATCGGGACGTTAGAGCGCGCGTGTTACTGCCAAATGTCTGTGTGTGACGAACAAATTAACCTCGACATGACATGCCGCTGGTTTGCCGCCGGTTCTCGACGCCGTGACACCGGCGTGGCGTGTGTAACGGGGAGGTAGCCTGCGTCGATATG (double strand) [urtA upstream] | binds
GCCCTCCGGGCGGTATCTGCGCCTGAACTTCTCCGGGCCGGAGCCGGACCGGTTCGAGGAGGCGGCGCGCGTGATCGGACGGTCGCTGCGCAGACAGCTGTGACCCGGCGGTTGTGGCCTGACTGTGGTCCGGAGAGCTCACCGGTCGGGGACCTCACATGTGCGTTGCCGAAGACGTGAGCACACCGTGATGGGGGCTTCACACAGCGCGACATCGCGGCAATATCGGGTTCTTAGCCTCGCCCTATG (double strand) [nirB upstream] | no binding
GCGAGGCAGACTAGCGGCATGACCGATGACGGCTACACAGTCGGTGACTACCTCCTGGACCGGCTCGCCGAACTCGGCGTGACCGAGGTCTTCGGCGTCCCCGGCGACTATCAGCTGGAGTTCCTCGACCACGTCGTGGCGCACCCGCGCATCACGTGGGTCGGCGGCGCGAACGAACTCAACGCGGGCTACGCGGCCGACGGCTACGGCCGGCTGCGGGGCATGGCGGCGTTGGTCACCACGTTCGGCGTCGGTGAGCTCTCGGCGGCCAACGCCATCGCAGGCAGCTACGCCGAGCAC (double strand) [msmeg_5734 upstream] | no binding
GGACCGGGACCGGATAGCCAGGATCCCAACCGGGAGCCGTTTGTGCGGGCCATGATGTCAGGATAGGCGCGTGCGGATGTCCGGCCGCCGGGTGCCACGTCGCGACGCGGTTCACACCGATGTGTGCTGGAGTTCACCGGCGGACACGCTCAAACCGATTGCGTAACGTCGGCGCAACATCGGGTTGACGACTGCGCAACATCGTGTCCTTAGCGTCAACGCGCGGGTTACCAGTAAAGGAGAACACTCA (double strand) [glnA upstream] | binds
GGGGTCACCACCTGCTGCTCGGCATCCACCATGTATCCCAGGAACGCACCGGCCCGGCGCGAAACGTGGTAGTGCACCACGAGTTTGCGCCCGCATCCGGTGCAGCCCACCAGGCCGTCGATCTCGACCGCGGCGGTGGTGACGGCGCGGCAGTGCGTACAGAACACGTCGCGGTGGGCGACCTCGGTGCTCGCGATCGTGATCTCGTCGTCGGCGATACCGTGCGCGAGGGCGTGGGCACGCACACGCAGATTCAGGTGAGCGGGGCCGGCGGTCATCAGTCGCCAGCCCACCACCGCG (double strand) [msmeg_4638 upstream] | no binding
GGGTCTCTCCAGGGAGGCGATGAGGGTGCGGGCGGCGACAGTGCCGGGAGCCGGATGATCGGCTGGGTCAATTACAGGCCCCGGCCATTGCCGTGTGGTTAGGGATGGACTACTTCTGAATTGCCGAAATCTCACAGCGGCAATGTGCTCGTAATAAGTGCAGCATGCGCCTTGACCTCAACCTCACTTGAGGTGCCAGGCTGGCTCTCATGACATGTGGACTCCAGTGGCCAGAGGCGGTAAACCGCCGCGAACCCGGGGGTAAACCCCCTGGGGACCTGGATCGGCACGCAGTAACTT (double strand) [msmeg_0572 upstream] | binds
GGTGCCGACCGCCCCGACGACGAGCGCGGCCACCGCCGCGACGAACCCGACCACCAGTCTGCGCACCGGGACATTGTTGCCCACGAGACCGGCAAAGATTCGCTCGGCGCGGCTGACGAGCAGGTGAGGCGTTATCCTCGTAACACCAAAGGCCGGTAACGGCTACATGTCAGTCATGAATCCGGAAGATCACCCGACACCGGCGTCTGTGTTCTCCCGCAGAGATTCCTGACGAGCCGGGAGGACTTG (double strand) [glnR upstream] | no binding
GGTGGCGGCGAGTTCGATACCGCTGTCGCTCAACGTGACCGGCGGCCACCCCAATCCGGTGAGGTCCACGAGCCTGCGCAGCTGAGGTTGGGGCTCGGAAAACAGCCAGGTCCCACCGGCCAACACCGCGTCGCCGGCCCCCAGCGGCCACACCTCCTCGCGACGGGTCGGCCGGTCCACCACCTCGACGGTGTTGAGGTCCATTCCCGCGACCGTAACCAAAGTGAACGCGCCGTGCACCATGAACCGTGGCACAACGCTCGGCGTGCGAACCGCCGCGATCTGTCCGATTCTTAGTCG (double strand) [msmeg_1293 upstream] | no binding
GTCCGCCAAGTTACCGGCCGGAAAAATAAGGTGCGCGCCTCCCTTATCCTTGTTGGGACTCATTCCGGCTCGATCCCACATGCGAAAGGTTGATCAGGTGGCGCTCGTCGTACAGAAATACGGCGGATCCTCGGTGGCGGACGCCGAGAGGATCCGACGGGTCGCCGAGCGGATCGTCGAGACCAAGAAGGCGGGCAACGACGTCGTCGTCGTCGTCTCCGCGATGGGTGACACCACCGATGACCTGCTGGACCTGGCGCGCCAGGTGTCGCCCGCGCCGCCGCCGCGCGAGATGGACAT (double strand) [msmeg_6258 upstream] | no binding
GTGGCGCGGCAGGGCGGCCACGGGCAGGCCCTGCTGGTCTTCGACACCGGTGACGGCCGCACGCTGCAGACCCATCCGCTTCCCGAGGCCACCGGCTGGCCGGTCGGGGTATCGATCGGCCACGACGGCCGCGTGGTCACCGCGACGAGTGACGGGCAAGTGTATGGCTTCTCACCGGCATGATGCCGGAAGTTTTACAGGGAATTGACGAAATCTCCACAGAAAGTGGTGGGCTTCGTGTGAGGATTTGGCGCGGCAACCGTGCAAGATCAATGAATTTCTGGGGGAAGGCAATAACCA (double strand) [msmeg_1052 upstream] | no binding

Reference: publication PMC4222082, “Nitrogen starvation-induced transcriptome alterations and influence of transcription regulator mutants in Mycobacterium smegmatis”
